Article PMC9719539 (Nature Communications, 2022)
Non-standard residues stand in square brackets, D forms with d.

B1: cRGDfK peptide, cyclo[Arg-Gly-Asp-D-Phe-Lys] (peptide)
peptide: cyclo(RGD[dF]K)
notes: cyclic pentapeptide, a cilengitide analog; f = D-Phe; Unlabelled soluble peptide used as titrator
B2: Biogen-αVβ1.5 Fab (Fab, V domains shown)
VH: EVQLVESGGGVVQPGRSLRLSCAASGFTFKYYGMHWVRQAPGKGLEWVASIWYDGSNKKYADSVKGRFTISRDNSKNTLYLQMNSLRAEDTAVYYCARGGPTRGDGTRVYYYGMDVWGQGTTVTVSS
VL: EIVMTQSPATLSVSPGERATLSCRASQSVSSNLAWYQQKPGQAPRLLIYSASTRATGIPARFSGSGSGTEFTLTISSLQSEDFAVYYCQQYYHHPFTFGGGTKVEIK
notes: heavy chain before CDR3; heavy-chain CDR3 (RGD motif highlighted); heavy chain after CDR3 up to the papain cut (IgG1); light chain; Expressed as IgG1 and cut to Fab with papain; also called Exemplary Antibody 5; anti-αVβ1; source: Expi293F, recombinantly expressed as IgG1; Fab generated with papain, purified (Hi-Trap Q)

Experiments:
[1] = biological target: T1, integrin α5β1 ectodomain (soluble) (human, UniProt P08648 42-995; P05556 21-728); test: fluorescence polarisation; competition with 10 nM FITC-cyclic-… binding to soluble integrin ectodomains in solution (50 nM α5β1, 200 nM αVβ1, 20 nM αVβ3, 20 nM αVβ5); global three-parameter dose-response fit; settings: both partners purified
T1 construct: human integrin α5 ectodomain; N-terminal secretion peptide and HRV3C digestion site in the construct; human integrin β1 ectodomain; source: Expi293F, transiently transfected, purified from culture supernatant (Ni-NTA, size-exclusion chromatography)

[2] = biological target: T2, integrin α5β1, intact, on wild type K562 cells (human (endogenous in K562), UniProt P08648 42-1049; P05556 21-798); test: flow cytometry on cells; intact integrins on K562 cells in L15 medium with 1% BSA and 1 mM Mn2+, no washing; titrator's binding read as enhancement of binding of AF647-9EG7 Fab (10 nM); EC50 of a three-parameter dose-response fit taken as Kd; settings: one partner purified
T2 construct: integrin α5 subunit, natively expressed on K562 cells; integrin β1 subunit, natively expressed on K562 cells; also called K562 WT (α5β1); K562 WT; source: endogenous, on wild type K562 cells
T2 sequence (P08648 42-1049, chain 1 of 2): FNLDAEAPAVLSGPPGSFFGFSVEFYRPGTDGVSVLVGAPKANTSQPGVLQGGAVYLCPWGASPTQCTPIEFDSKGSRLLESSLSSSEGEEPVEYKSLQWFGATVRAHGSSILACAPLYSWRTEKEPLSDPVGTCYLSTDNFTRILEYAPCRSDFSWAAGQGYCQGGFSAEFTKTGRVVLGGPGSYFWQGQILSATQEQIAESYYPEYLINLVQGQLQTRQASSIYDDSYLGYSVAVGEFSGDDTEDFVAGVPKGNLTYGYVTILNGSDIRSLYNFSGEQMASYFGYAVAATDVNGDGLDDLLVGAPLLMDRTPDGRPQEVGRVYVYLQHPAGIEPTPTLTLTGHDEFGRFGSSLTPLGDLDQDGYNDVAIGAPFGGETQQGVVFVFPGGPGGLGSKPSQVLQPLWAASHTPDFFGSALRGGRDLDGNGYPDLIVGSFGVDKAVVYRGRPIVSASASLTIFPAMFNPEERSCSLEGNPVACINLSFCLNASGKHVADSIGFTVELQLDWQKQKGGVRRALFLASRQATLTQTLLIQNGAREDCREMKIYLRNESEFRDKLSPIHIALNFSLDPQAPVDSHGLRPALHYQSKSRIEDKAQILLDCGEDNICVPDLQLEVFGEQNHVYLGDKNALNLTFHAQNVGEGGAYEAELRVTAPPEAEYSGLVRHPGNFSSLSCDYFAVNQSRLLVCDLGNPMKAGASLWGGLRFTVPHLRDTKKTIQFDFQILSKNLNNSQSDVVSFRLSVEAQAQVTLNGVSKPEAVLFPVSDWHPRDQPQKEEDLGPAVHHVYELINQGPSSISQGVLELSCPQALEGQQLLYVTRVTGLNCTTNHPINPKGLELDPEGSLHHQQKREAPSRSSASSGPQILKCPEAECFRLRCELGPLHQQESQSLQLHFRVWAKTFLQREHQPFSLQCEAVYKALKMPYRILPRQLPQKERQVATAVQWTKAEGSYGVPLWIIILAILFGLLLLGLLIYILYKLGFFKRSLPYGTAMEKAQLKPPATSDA
T2 sequence (P05556 21-798, chain 2 of 2): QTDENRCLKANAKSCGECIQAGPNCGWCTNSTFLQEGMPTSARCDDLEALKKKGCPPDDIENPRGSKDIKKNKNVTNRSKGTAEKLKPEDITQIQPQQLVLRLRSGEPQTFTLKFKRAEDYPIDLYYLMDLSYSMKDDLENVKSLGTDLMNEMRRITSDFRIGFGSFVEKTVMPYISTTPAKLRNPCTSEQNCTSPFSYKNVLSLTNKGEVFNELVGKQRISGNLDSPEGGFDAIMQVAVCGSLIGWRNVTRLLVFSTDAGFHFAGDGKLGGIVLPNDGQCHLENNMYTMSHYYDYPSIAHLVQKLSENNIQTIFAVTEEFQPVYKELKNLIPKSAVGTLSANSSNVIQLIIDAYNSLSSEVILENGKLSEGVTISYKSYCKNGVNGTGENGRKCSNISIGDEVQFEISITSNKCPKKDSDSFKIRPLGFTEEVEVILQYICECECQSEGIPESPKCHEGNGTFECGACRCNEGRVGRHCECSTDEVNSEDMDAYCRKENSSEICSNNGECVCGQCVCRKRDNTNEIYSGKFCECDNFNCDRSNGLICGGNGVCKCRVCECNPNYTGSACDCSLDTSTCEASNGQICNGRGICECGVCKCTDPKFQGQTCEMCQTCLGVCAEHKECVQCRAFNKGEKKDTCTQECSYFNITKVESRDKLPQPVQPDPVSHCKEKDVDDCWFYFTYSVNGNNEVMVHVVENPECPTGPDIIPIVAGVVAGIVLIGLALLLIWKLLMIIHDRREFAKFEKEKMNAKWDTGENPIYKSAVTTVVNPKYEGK

[3] = biological target: T2, integrin α5β1, intact, on wild type …; test: flow cytometry on cells; intact integrins on K562 cells in L15 medium with 1% BSA, without Mn2+, no washing; titrator's binding read as enhancement of binding of fluorescent 9EG7 Fab (10 nM); EC50 of a three-parameter dose-response fit taken as Kd; settings: one partner purified
[4] = biological target: T3, integrin α5β1 ectodomain (soluble) (human, UniProt P08648;P05556); test: fluorescence polarisation; competition with 10 nM FITC-cyclic-… binding to soluble integrin ectodomains in solution (50 nM α5β1, 200 nM αVβ1, 20 nM αVβ3, 20 nM αVβ5); global three-parameter dose-response fit; settings: both partners purified
T3 construct: human integrin α5 ectodomain; N-terminal secretion peptide and HRV3C digestion site in the construct; human integrin β1 ectodomain; source: Expi293F, transiently transfected, purified from culture supernatant (Ni-NTA, size-exclusion chromatography)

[5] = biological target: T4, integrin αVβ3 ectodomain (soluble) (human, UniProt P06756;P05106); test: as above; settings: both partners purified
T4 construct: human integrin αV ectodomain; N-terminal secretion peptide and HRV3C digestion site in the construct; human integrin β3 ectodomain; source: Expi293F, transiently transfected, purified from culture supernatant (Ni-NTA, size-exclusion chromatography)
T4 sequence (P06756 31-992, chain 1 of 2): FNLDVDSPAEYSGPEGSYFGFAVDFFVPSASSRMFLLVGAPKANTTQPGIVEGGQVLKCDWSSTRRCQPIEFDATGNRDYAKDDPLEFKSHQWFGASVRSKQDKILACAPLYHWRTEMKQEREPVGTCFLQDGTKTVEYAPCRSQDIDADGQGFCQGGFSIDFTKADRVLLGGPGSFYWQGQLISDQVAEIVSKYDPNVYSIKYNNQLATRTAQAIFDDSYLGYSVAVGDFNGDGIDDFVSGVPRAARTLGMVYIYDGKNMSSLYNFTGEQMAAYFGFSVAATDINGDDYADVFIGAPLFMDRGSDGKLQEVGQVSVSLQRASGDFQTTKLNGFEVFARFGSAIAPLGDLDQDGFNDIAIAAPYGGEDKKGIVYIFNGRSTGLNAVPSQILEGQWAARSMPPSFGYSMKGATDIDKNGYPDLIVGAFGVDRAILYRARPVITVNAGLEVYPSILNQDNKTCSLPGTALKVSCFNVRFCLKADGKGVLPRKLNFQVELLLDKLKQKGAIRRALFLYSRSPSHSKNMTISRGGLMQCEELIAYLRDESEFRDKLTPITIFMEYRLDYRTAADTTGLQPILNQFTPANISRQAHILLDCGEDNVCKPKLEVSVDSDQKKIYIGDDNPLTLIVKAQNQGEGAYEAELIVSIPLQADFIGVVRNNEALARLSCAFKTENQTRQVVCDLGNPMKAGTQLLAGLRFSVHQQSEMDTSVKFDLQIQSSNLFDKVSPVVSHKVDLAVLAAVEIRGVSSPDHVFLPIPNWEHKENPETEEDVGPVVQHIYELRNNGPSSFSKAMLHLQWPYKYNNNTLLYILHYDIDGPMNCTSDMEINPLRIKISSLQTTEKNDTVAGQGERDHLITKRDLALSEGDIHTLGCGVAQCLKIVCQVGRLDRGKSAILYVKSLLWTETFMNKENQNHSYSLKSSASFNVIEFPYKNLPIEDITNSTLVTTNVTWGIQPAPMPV
T4 sequence (P05106 27-718, chain 2 of 2): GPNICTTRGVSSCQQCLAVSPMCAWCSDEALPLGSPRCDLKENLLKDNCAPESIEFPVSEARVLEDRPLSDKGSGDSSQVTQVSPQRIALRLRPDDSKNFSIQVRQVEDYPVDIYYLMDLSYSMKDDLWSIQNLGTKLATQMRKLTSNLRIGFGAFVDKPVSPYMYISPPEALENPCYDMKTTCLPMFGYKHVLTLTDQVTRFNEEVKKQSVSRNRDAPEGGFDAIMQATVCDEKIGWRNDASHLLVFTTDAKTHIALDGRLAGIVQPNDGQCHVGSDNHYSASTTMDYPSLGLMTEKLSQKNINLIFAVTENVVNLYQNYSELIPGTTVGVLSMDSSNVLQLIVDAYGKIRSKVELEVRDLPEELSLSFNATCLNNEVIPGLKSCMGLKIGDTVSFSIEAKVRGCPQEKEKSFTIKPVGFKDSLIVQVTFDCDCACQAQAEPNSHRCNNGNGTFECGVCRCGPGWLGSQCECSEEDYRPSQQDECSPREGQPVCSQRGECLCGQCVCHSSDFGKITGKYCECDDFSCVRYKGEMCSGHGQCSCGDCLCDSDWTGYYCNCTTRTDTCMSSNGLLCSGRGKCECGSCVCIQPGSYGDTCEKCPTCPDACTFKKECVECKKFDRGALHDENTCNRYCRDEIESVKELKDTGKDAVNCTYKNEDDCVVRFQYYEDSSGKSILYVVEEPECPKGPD

[6] = biological target: T5, integrin αVβ1, intact, on K562 αVβ1 stable transfectants (human, UniProt P06756;P05556); test: flow cytometry on cells; intact integrins on K562 cells in L15 medium with 1% BSA and 1 mM Mn2+, no washing; titrator's binding read as enhancement of binding of AF647-9EG7 Fab (10 nM); EC50 of a three-parameter dose-response fit taken as Kd; settings: one partner purified
T5 construct: integrin αV subunit; integrin β1 subunit; the cells also express native α5β1, whose share the legend calls negligible
T5 sequence (P06756 31-1048, chain 1 of 2): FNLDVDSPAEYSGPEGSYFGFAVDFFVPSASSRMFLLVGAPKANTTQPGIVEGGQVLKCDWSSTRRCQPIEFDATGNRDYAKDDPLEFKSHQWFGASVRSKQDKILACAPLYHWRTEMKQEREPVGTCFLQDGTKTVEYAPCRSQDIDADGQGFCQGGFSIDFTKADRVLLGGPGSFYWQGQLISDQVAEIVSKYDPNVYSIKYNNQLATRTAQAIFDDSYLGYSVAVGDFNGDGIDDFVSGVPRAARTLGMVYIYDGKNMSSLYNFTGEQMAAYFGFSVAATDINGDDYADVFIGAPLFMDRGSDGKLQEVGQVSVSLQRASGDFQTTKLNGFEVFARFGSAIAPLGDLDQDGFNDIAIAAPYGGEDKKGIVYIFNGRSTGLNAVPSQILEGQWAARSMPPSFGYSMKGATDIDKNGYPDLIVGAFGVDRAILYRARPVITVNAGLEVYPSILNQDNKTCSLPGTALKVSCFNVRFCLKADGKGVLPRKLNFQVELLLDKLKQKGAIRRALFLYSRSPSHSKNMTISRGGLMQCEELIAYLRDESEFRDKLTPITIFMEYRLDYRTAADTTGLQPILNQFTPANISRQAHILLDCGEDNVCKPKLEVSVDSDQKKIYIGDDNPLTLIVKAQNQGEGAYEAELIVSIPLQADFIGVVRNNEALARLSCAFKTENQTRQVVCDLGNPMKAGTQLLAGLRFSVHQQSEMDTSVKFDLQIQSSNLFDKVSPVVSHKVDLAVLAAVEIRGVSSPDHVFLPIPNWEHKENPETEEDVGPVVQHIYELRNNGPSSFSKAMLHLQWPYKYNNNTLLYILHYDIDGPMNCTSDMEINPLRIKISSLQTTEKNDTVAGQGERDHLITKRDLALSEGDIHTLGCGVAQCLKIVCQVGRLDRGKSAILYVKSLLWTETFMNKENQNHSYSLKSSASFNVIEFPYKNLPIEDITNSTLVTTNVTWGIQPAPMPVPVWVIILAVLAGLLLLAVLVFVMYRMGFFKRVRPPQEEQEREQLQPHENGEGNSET
T5 sequence (P05556 21-798, chain 2 of 2): as the sequence (P05556 21-798, chain 2 of 2) above

[7] = biological target: T6, integrin α5β1, intact, on wild type K562 cells (human (endogenous in K562), UniProt P08648;P05556); test: as above; settings: one partner purified
T6 construct: integrin α5 subunit, natively expressed on K562 cells; integrin β1 subunit, natively expressed on K562 cells; also called K562 WT (α5β1); K562 WT; source: endogenous, on wild type K562 cells
T6 sequence (P08648 42-1049, chain 1 of 2): as the sequence (P08648 42-1049, chain 1 of 2) above
T6 sequence (P05556 21-798, chain 2 of 2): as the sequence (P05556 21-798, chain 2 of 2) above

[8] = biological target: T5, integrin αVβ1, intact, on K562 αVβ1 …; test: flow cytometry on cells; intact integrins on K562 cells in L15 medium with 1% BSA, without Mn2+, no washing; titrator's binding read as enhancement of binding of fluorescent 9EG7 Fab (10 nM); EC50 of a three-parameter dose-response fit taken as Kd; settings: one partner purified
[9] = biological target: T6, integrin α5β1, intact, on wild type …; test: as above; settings: one partner purified

Row | Binder | IC50 [1] [µM] | Kd [2] [µM] | Kd [3] [µM] | IC50 [4] [µM] | IC50 [5] [µM] | Kd [6] [µM] | Kd [7] [µM] | Kd [8] [µM] | Kd [9] [µM]
1 | B1 | 1.2 ± 0.5 | 11 | 610 |  |  |  |  |  | 
2 | B2 |  |  |  | 0.2 ± 0.1 | 21 ± 3 | 0.0236 | 4.3 | 0.117 | 19
